Results reported in patent US20230348555A1 (H LEE MOFFITT CANCER CENTER AND RESEARCH INSTITUTE, published 2023).

B1: S100A9 (ligand, human, UniProt P06702 1-114, looked up)
chain: MTCKMSQLERNIETIINTFHQYSVKLGHPDTLNQGEFKELVRKDLQNFLKKENKNEKVIEHIMEDLDTNADKQLSFEEFIMLMARLTWASHEKMHEGDEGPGHHHKPGLGEGTP
notes: One entry covers both the endogenous protein of human specimens and the protein expressed from transfected cDNA; also called MRP-14; calgranulin-B
B2: S100A8 (ligand, UniProt P05109 1-93, looked up)
chain: MLTELEKALNSIIDVYHKYSLIKGNFHAVYRDDLKKLLETECPQYIRKKGADVWFKELDINTDGAVNFQEFLILVIKMGVAAHKKSHEESHKE
notes: also called MRP-8; calgranulin A

What was measured:
[1] = biological target: T1, CD33/Siglec 3 chimeric fusion protein (ectodomain of CD33 fused to the Fc portion of human IgG1, with a … (Homo sapiens; human, UniProt P20138 18-259); assay: immunoprecipitation of BM cell lysates from MDS patients with CD33-fusion, then mass spectrometry (FIG. 3A)
T1 construct: extracellular domain; also called CD33-fusion; CD33-IgG; not shown: Fc region of human IgG1 (human Fc gamma) from the expression vector; C-terminal recognition site for E. coli biotin ligase
Excerpt: Therefore, to identify potential ligand(s) for this receptor, a chimeric fusion protein with the ectodomain of CD33 and the Fe portion of human IgG (here on referred to as CD33-fusion) was produced. BM cell lysates from MDS patients were immunoprecipitated with the CD33-fusion followed by high throughput mass-spectrometric analysis on associated peptides. S100A9, an inflammatory signaling molecule known to activate MDSC, was among the most prominent protein bands identified (FIG. 3A). To confirm the specificity of the binding of this DAMP to CD33 both S100A8 and S100A9 transfectants were prepared in the rhabdomyosarcoma cell line SJCRH30, which lacks detectable expression of endogenous CD33, S100A8 or S100A9. […] To validate clinically the ligand specificity in MDS patients, the pull-down was compared with CD33-fusion from healthy PBMC and BM as well as MDS patients. As expected, the highest amount of S100A9 was precipitated from the BM of MDS patient specimens (FIG. 3F). Next, to understand the kinetics of S100A9 and CD33 interactions, SJCRH30 cells were transfected with either vector or CD33 and incubated with recombinant human (rh) S100A9 tagged with DDK ([…] epitope, same epitope as Flag).

[2] = biological target: T2, CD33 (Siglec 3) expressed in cells (human, UniProt P20138 18-364); assay: reverse immunoprecipitation: S100A9 IP from CD33/S100A9 co-transfected SJCRH30 lysate, blotted for CD33 (FIG. 3E)
T2 construct: whole, on cells; In the co-immunoprecipitations it stood in cell lysates; also called SJCRH30-CD33 cells; CD33 on MDS-MDSC

[3] = biological target: T1, CD33/Siglec 3 chimeric fusion protein …; assay: immunofluorescence staining of transfected SJCRH30 cells with CD33-fusion and anti-human IgG1-APC (FIG. 3B)
Protocol: Immunofluorescence was detected using a Zeiss automated upright fluorescence microscope and images captured by a Nikon camera with the Capture Program AxioVision. Detailed methods for immuno-staining on S100A9 transfected SJCRH30 cells have been published previously (Chen, X., et al. 2008. Blood 113(14):3226-34). Specifically, SJCRH30 cells, which lack detectable expression levels of both CD33 and S100A9, were transfected with either S100A9 or S100A8 (negative control) for 48-72 hours. After incubation with CD33-fusion for 30 min (2 μg/ml), 1×10⁴ cells were cytospinned onto slides and then stained with a secondary anti-human IgG1-APC before analysis by immunofluorescence microscopy. Similarly, SJCRH30 cells, stable-transfected with CD33, were incubated with rhS100A9 tagged with DDK for various time points and stained by the same methodology before analysis.
S100A9 is a native ligand for CD33. […] Therefore, to identify potential ligand(s) for this receptor, a chimeric fusion protein with the ectodomain of CD33 and the Fe portion of human IgG (here on referred to as CD33-fusion) was produced. BM cell lysates from MDS patients were immunoprecipitated with the CD33-fusion followed by high throughput mass-spectrometric analysis on associated peptides. S100A9, an inflammatory signaling molecule known to activate MDSC, was among the most prominent protein bands identified (FIG. 3A). […]

Binder | binding result [1] | binding result [2] | binding result [3]
B1 | binds | binds | –
B2 | – | – | no binding (tested: 2 µg/ml CD33-fusion for 30 min)
